# Experimental data: the supplement of paper PMC10567573
# B1: CIB1 (parent)
# chain: DLSRLVNCLTGEGEDTRLSASEMK
# Variants of: B1
# Assay: protein stability index of a GFP-peptide fusion (GPS, HEK-293T) (PSI 1-6); higher = more stable
# Conditions: c terminus: a fixed tail appended
# 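Note: lentivirally expressed fusions sorted by FACS into six bins by GFP to DsRed ratio, PSI derived from sequencing read proportions per bin multiplied by bin number.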
row,Variant,protein stability index
1,DLSRLVNCLTGEGEDTRLSVSEMK [A20V],2.17
2,DLSRLVNCLTGIGEDTRLSASEMK [E12I],2.38
3,DLSRLVNCLTGGGEDTRLSASEMK [E12G],1.18
4,DLSRLVNCLTGHGEDTRLSASEMK [E12H],2.92
5,DLSRLVNCLTGQGEDTRLSASEMK [E12Q],2.43
6,DLSRLVNCLTGSGEDTRLSASEMK [E12S],2.44
7,DLSRLVNCLTGRGEDTRLSASEMK [E12R],2.4
8,DLSRLVNCLTGEGEDTRLSASEKK [M23K],4.14
9,DLSRLVNCLTGEGEDTRLSASEAK [M23A],3.76
10,DLSRLVNCLTGEGEDTRLSASEWK [M23W],2.81
11,DLSRLVNCLTGEGEDTRLSASEQK [M23Q],2.6
12,DLSRLVNCLTGEGEDTRLSASEHK [M23H],2.71
13,DLSCLVNCLTGEGEDTRLSASEMK [R4C],3.65
14,DLSGLVNCLTGEGEDTRLSASEMK [R4G],3.8
15,DLSMLVNCLTGEGEDTRLSASEMK [R4M],2.98
16,DLSQLVNCLTGEGEDTRLSASEMK [R4Q],2.27
17,DLSHLVNCLTGEGEDTRLSASEMK [R4H],3.96
18,DLSFLVNCLTGEGEDTRLSASEMK [R4F],3.88
19,DLSTLVNCLTGEGEDTRLSASEMK [R4T],4.46
20,DLSELVNCLTGEGEDTRLSASEMK [R4E],3.68
21,DLSRLVNCLTGEGEDTRLSASYMK [E22Y],3.08
22,DLSRLVNCLTGEGEDTRLSASAMK [E22A],3.08
23,DLSRLVNCLTGEGEDTRLSASHMK [E22H],2.49
24,DLSRLVNCLTGEGEDTRLSASCMK [E22C],2.76

row,Variant,protein stability index
1,DLSRLVNCLTGEGEDTRLSASNMK [E22N],3.54
2,DLSRLVNCLTGEGEDTRLSASIMK [E22I],2.83
3,DLSRLVNCLTGEGEDTRLSASLMK [E22L],2.29
4,DLSRLVNCLTGEGEDGRLSASEMK [T16G],3.35
5,DLSRLVNCLTGEGEDLRLSASEMK [T16L],3.71
6,DLSRLVNCLTGEGEDNRLSASEMK [T16N],3.22
7,DLSRLVNCLTGEGEDSRLSASEMK [T16S],2.48
8,DLSRLVNCLTGEGEDQRLSASEMK [T16Q],2.9
9,DLSRLVNCLTGEGEDDRLSASEMK [T16D],3.58
10,DLSRLVNCLTGEGEDTRLSASEMQ [K24Q],3.31
11,DLSRLVNCLTGEGEDTRLSASEMY [K24Y],2.23
12,DLSRLVNCLTGEGEDTRLSASEMA [K24A],3.25
13,DLSRLVNCLTGEGEDTRLSASEME [K24E],3.9
14,DLSRLVNCLTGEGEDTRLSASEMF [K24F],2.57
15,DLSRLVNCLTGEGEDTRLSASEMS [K24S],2.89
16,DLSRTVNCLTGEGEDTRLSASEMK [L5T],3.61
17,DLSRDVNCLTGEGEDTRLSASEMK [L5D],4.39
18,DLSRFVNCLTGEGEDTRLSASEMK [L5F],2.49
19,DLSRHVNCLTGEGEDTRLSASEMK [L5H],3.23
20,DLSRAVNCLTGEGEDTRLSASEMK [L5A],3.99
21,DLSRQVNCLTGEGEDTRLSASEMK [L5Q],4.54
22,DLSRVVNCLTGEGEDTRLSASEMK [L5V],4
23,DLSRCVNCLTGEGEDTRLSASEMK [L5C],3.35
24,DLSRRVNCLTGEGEDTRLSASEMK [L5R],2.87

row,Variant,protein stability index
1,DLSRLVNCTTGEGEDTRLSASEMK [L9T],3.02
2,DLSRLVNCYTGEGEDTRLSASEMK [L9Y],3.32
3,DLSRLVNCNTGEGEDTRLSASEMK [L9N],4.24
4,DLSRLVNCDTGEGEDTRLSASEMK [L9D],3.23
5,DLSRLVNCLTGEGQDTRLSASEMK [E14Q],3.53
6,DLSRLVNCLTGEGKDTRLSASEMK [E14K],2.94
7,DLSRLVNCLTGEGTDTRLSASEMK [E14T],3.41
8,DLSRLVNCLTGEGMDTRLSASEMK [E14M],2.06
9,DLSRLVNCLTGEGPDTRLSASEMK [E14P],2.17
10,DLSRLVNCLTGEGFDTRLSASEMK [E14F],2.2
11,DLSRLVMCLTGEGEDTRLSASEMK [N7M],2.09
12,DLSRLVSCLTGEGEDTRLSASEMK [N7S],3.63
13,DLSRLVKCLTGEGEDTRLSASEMK [N7K],2.84
14,DLSRLVTCLTGEGEDTRLSASEMK [N7T],2.62
15,DLSRLVLCLTGEGEDTRLSASEMK [N7L],3.85
16,DLSRLVWCLTGEGEDTRLSASEMK [N7W],2.2
17,DLSRLVICLTGEGEDTRLSASEMK [N7I],2.59
18,DLSRLVNCLAGEGEDTRLSASEMK [T10A],3.49
19,DLSRLVNCLIGEGEDTRLSASEMK [T10I],2.68
20,DLSRLVNCLRGEGEDTRLSASEMK [T10R],2.15
21,DLSRLVNCLCGEGEDTRLSASEMK [T10C],4.11
22,DLSRLVNCLEGEGEDTRLSASEMK [T10E],3.39
23,DLSRLVNCLVGEGEDTRLSASEMK [T10V],3.38
24,DLSRLVNCLYGEGEDTRLSASEMK [T10Y],1.99

row,Variant,protein stability index
1,DLSRLVNCLKGEGEDTRLSASEMK [T10K],2.9
2,DLSRLVNCLTGEGEDTRDSASEMK [L18D],4.07
3,DLSRLVNCLTGEGEDTRQSASEMK [L18Q],2.96
4,DLSRLVNCLTGEGEDTRHSASEMK [L18H],4.09
5,DLSRLGNCLTGEGEDTRLSASEMK [V6G],2.36
6,DLSRLCNCLTGEGEDTRLSASEMK [V6C],3.96
7,DLSRLDNCLTGEGEDTRLSASEMK [V6D],4.1
8,DLSRLWNCLTGEGEDTRLSASEMK [V6W],2.64
9,DLSRLLNCLTGEGEDTRLSASEMK [V6L],3.68
10,DLQRLVNCLTGEGEDTRLSASEMK [S3Q],2.84
11,DLRRLVNCLTGEGEDTRLSASEMK [S3R],2.43
12,DLNRLVNCLTGEGEDTRLSASEMK [S3N],2.39
13,DLGRLVNCLTGEGEDTRLSASEMK [S3G],3.72
14,DLIRLVNCLTGEGEDTRLSASEMK [S3I],1.2
15,DLMRLVNCLTGEGEDTRLSASEMK [S3M],3.1
16,DLSRLVNHLTGEGEDTRLSASEMK [C8H],2.81
17,DLSRLVNDLTGEGEDTRLSASEMK [C8D],4.3
18,DLSRLVNPLTGEGEDTRLSASEMK [C8P],4.28
19,DLSRLVNKLTGEGEDTRLSASEMK [C8K],1.43
20,DLSRLVNVLTGEGEDTRLSASEMK [C8V],3.27
21,DLSRLVNYLTGEGEDTRLSASEMK [C8Y],2.34
22,DLSRLVNFLTGEGEDTRLSASEMK [C8F],2.46
